Experiments:
[1] = target: GFP-JMY CT (aa821-983) (Mus musculus) (UniProt Q9QXM1); experiment: co-IP; as a9 but lysate/antibody mixture with 2 µM Ca2+; actin CoIP/GFP IP ratio as percent difference from the Ca2+-free (1 mM EGTA) condition
[2] = target: GFP-JMY WH2#1 (aa841-883) (Mus musculus) (UniProt Q9QXM1); experiment: as above
[3] = target: GFP-JMY CT (aa821-983) (Mus musculus) (UniProt Q9QXM1); experiment: co-IP; L929 lysate with GFP-JMY CT, continuous 2 µM Ca2+ for 2 h, compared with continuous EGTA; anti-GFP immunoprecipitation, quantitative immunoblot

Sequence of GFP-JMY CT (aa821-983) (Mus musculus) (Q9QXM1 821-983): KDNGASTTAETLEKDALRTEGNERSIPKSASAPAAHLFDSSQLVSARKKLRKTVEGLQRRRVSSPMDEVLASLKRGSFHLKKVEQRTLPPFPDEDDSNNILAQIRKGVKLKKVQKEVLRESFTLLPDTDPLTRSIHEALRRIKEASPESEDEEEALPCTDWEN
Sequence of GFP-JMY WH2#1 (aa841-883) (Mus musculus) (Q9QXM1 841-883): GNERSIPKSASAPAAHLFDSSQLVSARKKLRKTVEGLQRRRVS

In the case of “endogenous actin from L929 cells (from UniProt P60710 1-375) (natural protein)”, the percent change of coimmunoprecipitated actin with 2 µM Ca2+ against the Ca2+-free condition [1] is reported as < -80%, the percent change of coimmunoprecipitated actin with 2 µM Ca2+ against the Ca2+-free condition [2] is reported as < -80% and the percent change of coimmunoprecipitated actin with 2 µM Ca2+ against the Ca2+-free condition [3] is reported as -80%.

Reference: paper PMC12098658
